From the supplement of paper PMC10065799, “High-throughput profiling of sequence recognition by tyrosine kinases and SH2 domains using bacterial peptide display” (eLife, 2023)

Legend:
AncSZ = assay: phosphorylation enrichment, bacterial display (enrichment ratio); higher = better substrate or ligand; peptides without Tyr show the background
EPHB1 = EPHB1 (UniProt P54762); assay: as above
EPHB2 = EPHB2 (UniProt P29323); assay: as above
FGFR1 = FGFR1 (UniProt P11362); assay: as above
FGFR3 = FGFR3 (UniProt P22607); assay: as above
Fer (mouse) = assay: as above
Fes = Fes (UniProt P07332); assay: as above
Fyn = Fyn (UniProt P06241); assay: as above
Hck = Hck (UniProt P08631); assay: as above
Jak2 = Jak2 (UniProt O60674); assay: as above
MERTK = MERTK (UniProt Q12866); assay: as above
c-Abl (mouse) = assay: as above
c-Src = assay: as above
Grb2 SH2 = Grb2 SH2 (UniProt P62993); assay: SH2 binding enrichment of the phosphorylated peptide, bacterial display (enrichment ratio); higher = better substrate or ligand; peptides without Tyr show the background
SHP2-C SH2 = assay: as above
c-Src SH2 = assay: as above
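Throughout, for SH2 binding enrichment of the phosphorylated peptide, bacterial display: peptide library displayed on the E. coli surface as eCPX fusions, selected cells deep-sequenced, score is each peptide's frequency after selection divided by its frequency in the input.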
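Throughout, for phosphorylation enrichment, bacterial display: 11-residue human phosphosite peptides and single-mutation variants displayed on the E. coli surface, counted by deep sequencing, each peptide's frequency after selection divided by its frequency in the unselected input library; frequency after pTyr selection over input frequency; kinase dosed for 20-30% of maximal phosphorylation in three min.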

Chain of Grb2 SH2 (P62993 whole entry, looked up): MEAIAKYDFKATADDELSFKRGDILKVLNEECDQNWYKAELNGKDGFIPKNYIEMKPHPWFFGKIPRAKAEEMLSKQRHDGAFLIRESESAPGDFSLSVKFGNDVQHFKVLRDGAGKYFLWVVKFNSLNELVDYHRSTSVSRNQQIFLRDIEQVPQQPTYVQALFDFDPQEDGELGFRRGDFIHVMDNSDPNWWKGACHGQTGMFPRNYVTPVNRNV
Chain of Jak2 (O60674 whole entry, looked up): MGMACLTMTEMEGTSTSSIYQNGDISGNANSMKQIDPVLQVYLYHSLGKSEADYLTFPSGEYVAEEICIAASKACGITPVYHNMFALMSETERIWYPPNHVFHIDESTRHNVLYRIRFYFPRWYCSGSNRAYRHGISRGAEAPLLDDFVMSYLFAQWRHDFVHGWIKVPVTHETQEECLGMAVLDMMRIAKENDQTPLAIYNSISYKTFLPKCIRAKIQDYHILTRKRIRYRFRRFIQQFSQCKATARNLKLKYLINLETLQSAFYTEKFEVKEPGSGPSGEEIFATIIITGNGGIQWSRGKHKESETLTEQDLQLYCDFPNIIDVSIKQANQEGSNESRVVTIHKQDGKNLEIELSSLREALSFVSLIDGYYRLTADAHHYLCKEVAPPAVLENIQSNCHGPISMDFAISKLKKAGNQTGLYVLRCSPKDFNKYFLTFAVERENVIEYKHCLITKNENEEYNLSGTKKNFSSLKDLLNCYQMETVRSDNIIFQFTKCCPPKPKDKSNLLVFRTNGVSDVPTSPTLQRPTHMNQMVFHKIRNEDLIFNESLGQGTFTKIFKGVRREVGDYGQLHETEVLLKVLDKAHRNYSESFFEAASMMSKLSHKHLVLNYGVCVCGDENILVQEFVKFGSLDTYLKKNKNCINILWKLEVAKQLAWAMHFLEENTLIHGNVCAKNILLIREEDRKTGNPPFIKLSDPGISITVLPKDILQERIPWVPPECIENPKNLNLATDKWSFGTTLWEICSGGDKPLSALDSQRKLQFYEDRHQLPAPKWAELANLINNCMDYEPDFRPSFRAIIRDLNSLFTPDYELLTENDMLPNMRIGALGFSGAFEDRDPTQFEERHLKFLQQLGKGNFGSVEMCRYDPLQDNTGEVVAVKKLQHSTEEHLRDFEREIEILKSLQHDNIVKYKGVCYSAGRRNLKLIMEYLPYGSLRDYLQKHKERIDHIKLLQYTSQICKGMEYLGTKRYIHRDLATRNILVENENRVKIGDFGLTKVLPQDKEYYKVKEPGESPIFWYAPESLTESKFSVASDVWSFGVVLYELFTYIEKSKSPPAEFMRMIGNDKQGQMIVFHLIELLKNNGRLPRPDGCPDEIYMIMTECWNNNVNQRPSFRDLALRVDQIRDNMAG
Chain of Hck (P08631 whole entry, looked up): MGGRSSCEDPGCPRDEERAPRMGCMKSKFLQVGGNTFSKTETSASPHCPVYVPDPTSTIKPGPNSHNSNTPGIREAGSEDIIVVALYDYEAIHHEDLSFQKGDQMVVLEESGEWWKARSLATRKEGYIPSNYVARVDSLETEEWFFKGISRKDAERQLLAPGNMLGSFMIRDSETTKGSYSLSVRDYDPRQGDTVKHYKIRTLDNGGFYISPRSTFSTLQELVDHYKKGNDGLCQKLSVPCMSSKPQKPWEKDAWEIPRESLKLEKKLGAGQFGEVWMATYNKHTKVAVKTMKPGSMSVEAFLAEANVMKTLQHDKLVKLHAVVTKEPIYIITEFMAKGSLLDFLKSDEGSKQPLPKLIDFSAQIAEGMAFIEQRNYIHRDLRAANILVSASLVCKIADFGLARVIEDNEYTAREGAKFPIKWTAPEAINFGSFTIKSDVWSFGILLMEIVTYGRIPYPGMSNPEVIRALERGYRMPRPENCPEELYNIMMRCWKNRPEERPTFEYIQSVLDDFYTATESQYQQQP
Chain of FGFR3 (P22607 whole entry, looked up): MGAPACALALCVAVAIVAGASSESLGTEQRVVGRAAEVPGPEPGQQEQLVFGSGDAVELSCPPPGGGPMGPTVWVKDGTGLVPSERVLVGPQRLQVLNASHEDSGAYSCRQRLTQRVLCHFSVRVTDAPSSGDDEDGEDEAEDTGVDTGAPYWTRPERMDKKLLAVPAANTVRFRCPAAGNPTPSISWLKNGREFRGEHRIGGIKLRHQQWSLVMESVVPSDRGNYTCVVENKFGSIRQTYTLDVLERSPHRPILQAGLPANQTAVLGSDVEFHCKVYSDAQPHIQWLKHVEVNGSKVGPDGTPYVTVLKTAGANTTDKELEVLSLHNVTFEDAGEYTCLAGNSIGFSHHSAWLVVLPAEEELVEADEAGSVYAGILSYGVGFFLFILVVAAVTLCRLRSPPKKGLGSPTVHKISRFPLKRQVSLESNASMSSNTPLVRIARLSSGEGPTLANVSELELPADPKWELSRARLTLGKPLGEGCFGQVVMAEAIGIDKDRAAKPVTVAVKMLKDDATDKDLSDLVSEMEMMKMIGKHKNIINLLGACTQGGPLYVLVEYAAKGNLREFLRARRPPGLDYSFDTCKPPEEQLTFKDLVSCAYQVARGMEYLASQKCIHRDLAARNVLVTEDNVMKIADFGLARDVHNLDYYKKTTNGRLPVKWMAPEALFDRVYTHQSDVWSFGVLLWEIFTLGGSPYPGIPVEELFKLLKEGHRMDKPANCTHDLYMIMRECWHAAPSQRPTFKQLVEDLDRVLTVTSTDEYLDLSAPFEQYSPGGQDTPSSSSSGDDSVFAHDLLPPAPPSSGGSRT
Chain of EPHB1 (P54762 whole entry, looked up): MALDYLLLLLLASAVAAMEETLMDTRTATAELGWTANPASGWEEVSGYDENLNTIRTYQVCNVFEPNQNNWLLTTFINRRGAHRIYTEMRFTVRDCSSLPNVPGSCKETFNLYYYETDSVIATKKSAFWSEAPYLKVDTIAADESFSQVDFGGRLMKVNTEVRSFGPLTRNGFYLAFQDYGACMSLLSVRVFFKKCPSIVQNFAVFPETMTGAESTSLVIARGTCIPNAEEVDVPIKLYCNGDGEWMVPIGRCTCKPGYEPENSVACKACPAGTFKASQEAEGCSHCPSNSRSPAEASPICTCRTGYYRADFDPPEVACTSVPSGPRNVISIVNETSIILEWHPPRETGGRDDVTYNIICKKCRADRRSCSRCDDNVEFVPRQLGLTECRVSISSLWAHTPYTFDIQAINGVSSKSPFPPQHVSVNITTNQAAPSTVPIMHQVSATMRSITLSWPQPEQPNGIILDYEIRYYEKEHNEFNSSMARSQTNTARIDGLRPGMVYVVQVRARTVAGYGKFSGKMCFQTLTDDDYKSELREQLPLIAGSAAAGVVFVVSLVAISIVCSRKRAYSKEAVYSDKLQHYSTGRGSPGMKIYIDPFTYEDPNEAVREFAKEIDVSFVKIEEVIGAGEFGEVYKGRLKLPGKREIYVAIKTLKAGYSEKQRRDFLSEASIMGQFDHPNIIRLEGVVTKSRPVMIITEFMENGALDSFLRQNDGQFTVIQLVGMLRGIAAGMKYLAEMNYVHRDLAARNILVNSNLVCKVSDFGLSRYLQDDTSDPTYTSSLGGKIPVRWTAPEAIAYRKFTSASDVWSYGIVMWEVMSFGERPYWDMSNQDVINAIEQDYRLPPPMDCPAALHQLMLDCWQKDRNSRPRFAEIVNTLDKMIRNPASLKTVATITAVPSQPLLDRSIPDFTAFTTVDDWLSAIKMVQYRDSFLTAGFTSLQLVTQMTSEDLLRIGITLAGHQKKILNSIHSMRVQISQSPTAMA
Chain of Fyn (P06241 whole entry, looked up): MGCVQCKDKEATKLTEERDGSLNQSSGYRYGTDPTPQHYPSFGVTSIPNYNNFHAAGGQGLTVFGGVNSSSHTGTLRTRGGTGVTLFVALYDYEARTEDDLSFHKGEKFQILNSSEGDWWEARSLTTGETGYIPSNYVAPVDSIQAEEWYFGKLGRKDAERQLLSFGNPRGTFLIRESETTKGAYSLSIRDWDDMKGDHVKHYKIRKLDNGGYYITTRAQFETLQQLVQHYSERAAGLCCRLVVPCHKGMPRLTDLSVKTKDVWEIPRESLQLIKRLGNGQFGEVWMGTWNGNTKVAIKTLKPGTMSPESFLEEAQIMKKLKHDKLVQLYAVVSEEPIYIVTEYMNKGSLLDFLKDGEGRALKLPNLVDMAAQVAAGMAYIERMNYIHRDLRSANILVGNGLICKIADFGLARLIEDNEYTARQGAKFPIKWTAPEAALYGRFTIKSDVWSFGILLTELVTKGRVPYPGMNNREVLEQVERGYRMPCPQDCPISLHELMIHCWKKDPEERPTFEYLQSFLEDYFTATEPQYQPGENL
Chain of Fes (P07332 whole entry, looked up): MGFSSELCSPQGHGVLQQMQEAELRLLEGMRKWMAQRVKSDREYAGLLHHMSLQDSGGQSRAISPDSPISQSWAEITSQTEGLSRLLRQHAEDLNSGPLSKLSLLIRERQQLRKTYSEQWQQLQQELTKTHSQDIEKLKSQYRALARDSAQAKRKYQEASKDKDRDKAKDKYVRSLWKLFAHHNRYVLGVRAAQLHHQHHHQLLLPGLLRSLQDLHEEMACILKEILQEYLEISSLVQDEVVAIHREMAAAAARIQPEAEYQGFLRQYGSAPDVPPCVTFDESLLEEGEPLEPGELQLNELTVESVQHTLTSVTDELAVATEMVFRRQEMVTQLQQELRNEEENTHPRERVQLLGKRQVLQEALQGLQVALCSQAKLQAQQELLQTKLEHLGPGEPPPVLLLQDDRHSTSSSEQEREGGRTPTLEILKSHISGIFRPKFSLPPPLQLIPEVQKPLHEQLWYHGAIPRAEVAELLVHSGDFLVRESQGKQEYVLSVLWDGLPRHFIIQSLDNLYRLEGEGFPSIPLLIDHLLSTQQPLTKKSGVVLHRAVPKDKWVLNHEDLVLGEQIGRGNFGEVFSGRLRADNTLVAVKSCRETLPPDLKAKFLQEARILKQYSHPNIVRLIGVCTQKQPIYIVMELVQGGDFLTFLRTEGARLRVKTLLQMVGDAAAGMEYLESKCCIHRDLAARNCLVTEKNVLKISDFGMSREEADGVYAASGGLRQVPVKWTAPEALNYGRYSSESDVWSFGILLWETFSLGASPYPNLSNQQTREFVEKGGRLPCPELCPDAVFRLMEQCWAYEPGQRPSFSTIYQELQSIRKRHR

Sequence	phosphorylation enrichment (AncSZ)	phosphorylation enrichment (EPHB1)	phosphorylation enrichment (EPHB2)	phosphorylation enrichment (FGFR1)	phosphorylation enrichment (FGFR3)	phosphorylation enrichment (Fer (mouse))	phosphorylation enrichment (Fes)	phosphorylation enrichment (Fyn)	phosphorylation enrichment (Hck)	phosphorylation enrichment (Jak2)	phosphorylation enrichment (MERTK)	phosphorylation enrichment (c-Abl (mouse))	phosphorylation enrichment (c-Src)	SH2 binding enrichment (Grb2 SH2)	SH2 binding enrichment (SHP2-C SH2)	SH2 binding enrichment (c-Src SH2)
SVEELYAIPPD [PEAK1_Y797]	3.92	3.15	13.6	5.57	5.64	5.23	1.59	2.88	4.24	1.78	9.81	9.56	3.28	0.746	0.733	0.543
SKDQICPMKLK [RANBP17_Y823_Y823C]	0.825	0.385	0.565	0.595	0.643	0.614	0.781	0.599	0.573	0.746	0.553	0.632	0.505	1.08	0.586	0.744
CVAARYMDVKG [WFIKKN2_Y93]	0.655	0.535	0.516	0.445	0.549	0.442	0.887	0.419	0.43	0.696	0.435	0.56	0.313	0.784	0.52	1.16
KDGIGYISAAE [CALM2_Y100_N98I]	0.635	0.393	0.424	0.476	0.517	0.464	0.763	0.466	0.454	0.589	0.476	0.557	0.427	1.07	0.686	0.598
QDEHGYISRCF [HSPB1_Y133]	1.23	0.718	0.923	0.555	0.792	0.601	1.19	0.741	0.838	0.965	0.396	0.861	0.418	0.662	0.763	0.445
ALETLYKKAVK [CC2D2A_Y381_E376A]	0.559	0.348	0.366	0.405	0.475	0.446	0.864	0.342	0.396	0.603	0.338	0.463	0.307	0.889	0.599	0.511
RLKAKYPAATG [GLI3_Y933_A934P]	0.713	0.708	0.697	0.716	0.941	0.604	0.969	0.755	0.787	0.905	0.639	1.14	0.818	1.48	1.25	1.48
NHYKICNLCAE [PTEN_Y68_Y68C]	0.663	0.376	0.395	0.488	0.519	0.384	0.691	0.4	0.378	0.613	0.45	0.571	0.372	1.12	0.956	0.97
CTTIHYNFRCN [TP53_Y234_M237R_YF]	0.763	0.536	0.499	0.487	0.637	0.462	0.804	0.471	0.439	0.56	0.386	0.584	0.469	1.61	1.67	1.48
VPTSKYRGGGG [HBA1_Y141_L137P]	0.392	0.284	0.341	0.392	0.349	0.327	0.457	0.452	0.355	0.572	0.392	0.446	0.363	0.929	0.597	0.558
KDHPDYEYQPR [SOX9_Y172_K173E]	2.59	2.21	0.958	0.844	0.771	0.465	0.961	0.667	0.588	0.811	0.432	0.665	0.474	1.19	0.689	0.586
MSGDVYSTDFF [NTRK2_Y702_R699G_YF]	1.08	1.02	1.32	1.42	1.18	0.775	1.06	5.33	2.4	0.959	6.82	0.736	4.62	0.701	1.15	0.526
LFNQDYPIHSV [GATM_Y227_YF]	2.31	1.46	0.787	3.19	2	1.24	2.09	1.01	1.07	0.707	0.796	0.984	0.81	1.21	0.725	0.432
TKDTFHKQPMF [GBA_Y451_Y451H]	0.454	0.29	0.352	0.304	0.391	0.249	0.476	0.333	0.312	0.468	0.403	0.445	0.459	0.884	0.884	0.547
RGDTVYTVNCM [KBTBD13_Y404_R408C]	0.937	0.692	0.636	0.479	0.686	0.547	1.08	3.11	1.21	0.844	0.734	0.697	2.45	0.752	0.793	0.475
DRPASYKKKSM [PDGFRA_Y768]	0.383	0.343	0.367	0.324	0.347	0.306	0.517	0.365	0.39	0.494	0.418	0.546	0.409	0.803	0.962	0.412
